Test [1] deals with SARS-COV-2 Omicron (B.1.1.529) full length spike on HIV-1 based pseudovirus (Example 2) (SARS-CoV-2 Omicron, UniProt P0DTC2 14-1273). Briefly: cell-based or functional assay.
The target in test [2] is T1, SARS-COV-2 Omicron RBD recombinant protein (Sino Biological 40592-V08H121) (SARS-CoV-2 Omicron BA.1, UniProt P0DTC2 319-541).
Test [3] addresses T1, SARS-COV-2 Omicron RBD recombinant …. The source holds these as a separate data set.
The target is the same in test [4]. The source holds these as a separate data set.
Test [5] has the same target. This is another data set of the same source.
For test [6] the target is unchanged. The source holds these as a separate data set.
Test [7] has the same target. This is another data set of the same source.
The target is the same in test [8]. Description: ELISA, SARS-CoV-2-Omicron BA.1 RBD coated, antibody titrated. (In general: In an ELISA, binding on a coated surface is turned into a signal by an enzyme label.)
Test [9] shares this target. Briefly: BLI (Octet); by the text the format with mAb immobilised and soluble Omicron RBD.
In test [10] the target is SARS-COV-2 Omicron BA.1 spike on HIV-1 based pseudovirus (Example 3) (SARS-CoV-2 Omicron BA.1, UniProt P0DTC2 14-1273). Briefly: cell-based or functional assay.
For test [11], the target named is SARS-COV-2 Omicron BA.1.1 spike on HIV-1 based pseudovirus (SARS-CoV-2 Omicron BA.1.1, UniProt P0DTC2 14-1273). Briefly: cell-based or functional assay.
The target of test [12] is SARS-COV-2 Omicron BA.2 spike on HIV-1 based pseudovirus (SARS-CoV-2 Omicron BA.2, UniProt P0DTC2 14-1273). Description: cell-based or functional assay.

Where two headings read alike, the source gives them in different places. Some results are limits rather than exact numbers.

B1: Clone 2 (antibody, V domains shown)
VH: EVQLQQSGPELVKPGASVKISCKASGYSFTGYSMNWMKQSPEKSLEWIGEINPSTGGTTDNQKFKAKATLTVDKSSSTAYMQLKSLTSEDSAVYYCARSRGDYWGQGTSVTVSS
VL: DIVLTQSPASLAVSLGQRATISCRASESVEYYGTSLMQWYQQKPGQPPKVLIYAASNVESGVPARFSGSGSGTDFSLNIHPVEEDDIAMYFCQQSRKVPWTFGGGTKLEIKR
As to B1, in test [1], the “pseudovirus neutralization, IC50” value was 0.396 µg/mL.

B2: MB.08 (antibody, V domains shown)
VH: QVQLQESGPGLVKPSETLSLTCTVSGGSISSYYWSWIRQPPGKGLEWIGYIYYSGSTNYNPSLKSRVTISVDTSKNQFSLKLSSVTAADTAVYYCARGLTGGDAFDIWGQGTMVTVSS
VL: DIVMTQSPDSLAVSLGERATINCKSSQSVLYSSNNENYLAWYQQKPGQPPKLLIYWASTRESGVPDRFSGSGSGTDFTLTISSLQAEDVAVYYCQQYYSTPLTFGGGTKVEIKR
Consider B2, for which the Kd in test [2] was below 0.001 nM; in [9], 7.16 nM. Moreover, the EC50 in test [3] is 0.0122 µg/mL; in [8] it was 0.0014 µg/mL. The koff in test [4] is 0.00536 s⁻¹; in [6], below 1e-07 s⁻¹; in [7], 0.00536 s⁻¹. The results for the kon in test [4], in test [6] and in [7] were 418000 M⁻¹ s⁻¹, 172000 M⁻¹ s⁻¹ and 418000 M⁻¹ s⁻¹, respectively. In test [5], the “EC50 (read off the curve)” value is around 0.2 µg/mL.

B3: CoV2-0213 (bispecific antibody, human IgG1, kappa)
heavy 1: not shown
light 1: DIQMTQSPSSLSASVGDRVTITCRASESVEYYGTSLMQWYQQKPGKAPKLLIYAASNVESGVPARFSGSGSGTDFTLTISSLQPEDFATYYCQQSRKVPWTFGQGTKVEIKRSSASTKGPSVFPLAPSSKSTSGGTAALGCLVKDYFPEPVTVSWNSGALTSGVHTFPAVLQSSGLYSLSSVVTVPSSSLGTQTYICNVNHKPSNTKVDKKVEPKSC
heavy 2: not shown
light 2: not shown
As to B3, the “pseudovirus neutralization, IC50” value was 0.044 µg/mL in [10], 0.062 µg/mL in [11] and 0.078 µg/mL in test [12]. Also, in test [12], the “pseudovirus neutralization, fold more effective than S309/Sotrovimab” value is around 78 fold.

As usually defined, the Kd is the constant that tells how readily two partners part at equilibrium. What is called EC50 is the concentration giving half of the maximal effect. The koff is a measure of how fast the partners let go of each other. As usually defined, the kon is the second-order rate constant of association. The EC50 (read off the curve) is the midpoint of the concentration-response curve.

The values are drawn from US20240228595A1 (YALE UNIVERSITY, published 2024).
